Test results as given in patent publication US20250332297A1, “DLL3-SPECIFIC BINDING CONSTRUCTS AND THEIR USE IN RADIOTHERAPY” (MOLECULAR PARTNERS AG, priority 2024, published 2025).
Numbering of substitutions follows the chain as printed. Where two headings read alike, the source gives them in different places.

T1: NCI-H82 cells expressing human DLL3 (Homo sapiens, UniProt Q9NYJ7)
T1 construct: a human lung carcinoma cell line which endogenously expresses DLL3 on the surface; host or cells: NCI-H82
T1 sequence (Q9NYJ7 27-618): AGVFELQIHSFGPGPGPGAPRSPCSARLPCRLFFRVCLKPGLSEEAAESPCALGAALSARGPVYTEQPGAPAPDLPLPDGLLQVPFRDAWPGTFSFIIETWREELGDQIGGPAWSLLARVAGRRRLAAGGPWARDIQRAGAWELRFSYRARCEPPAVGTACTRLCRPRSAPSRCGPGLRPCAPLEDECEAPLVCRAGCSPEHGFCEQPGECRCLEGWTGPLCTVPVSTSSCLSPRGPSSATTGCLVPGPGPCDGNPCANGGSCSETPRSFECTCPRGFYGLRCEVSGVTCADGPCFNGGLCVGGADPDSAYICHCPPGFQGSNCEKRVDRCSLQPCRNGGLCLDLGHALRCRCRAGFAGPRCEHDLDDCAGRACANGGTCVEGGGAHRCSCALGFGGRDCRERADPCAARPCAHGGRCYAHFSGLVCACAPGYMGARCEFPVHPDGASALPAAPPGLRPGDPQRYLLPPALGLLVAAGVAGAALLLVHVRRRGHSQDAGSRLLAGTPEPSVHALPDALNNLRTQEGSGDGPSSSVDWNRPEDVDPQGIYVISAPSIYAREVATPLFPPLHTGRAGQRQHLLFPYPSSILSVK

B1: MAM160: Two domain (2D) ankyrin repeat protein: serum albumin-specific domain (SEQ ID NO: 7), PT linker, DLL3-specific domain MAM120 (protein)
chain: DLGKKLLEAARAGQDDEVRELLKAGADVNAKDYFSHTPLHLAARNGHLKIVEVLLKAGADVNAKDFAGKTPLHLAADAGHLEIVEVLLKAGADVNAQDIFGKTPADIAADAGHEDIAEVLQKAAGSPTPTPTTPTPTPTTPTPTPTGSDLGTKLLSAAADGQDDEVRELLQAGADVNAKDLFGYTPLHLAAWRGHLEIVEVLLEAGADVNAKDAAGLTPLHLAAWFGHLEIVEVLLEAGADVNAQDVQGVTPADLAAKEGHEDIAEVLQQAA
modifications: Ankyrin repeat protein (MAM160)
B2: MAM279: Two domain (2D) ankyrin repeat protein: serum albumin-specific domain (SEQ ID NO: 7), PT linker, DLL3-specific domain of MAM093 (protein)
chain: DLGKKLLEAARAGQDDEVRELLKAGADVNAKDYFSHTPLHLAARNGHLKIVEVLLKAGADVNAKDFAGKTPLHLAADAGHLEIVEVLLKAGADVNAQDIFGKTPADIAADAGHEDIAEVLQKAAGSPTPTPTTPTPTPTTPTPTPTGSDLGKKLLAAAAQGQDDEVRELLKAGANVNAKDLFGYTPLHLAAWRGHLEIVEVLLKAGADVNAKDAAGETPLHLAAWFGHLEIVEVLLKAGADVNAQDLQGKTPADLAAKEGHEDIAEVLQKAA
modifications: Ankyrin repeat protein (MAM279)
B3: MAM283: Two domain (2D) ankyrin repeat protein: serum albumin-specific domain (SEQ ID NO: 7), PT linker, DLL3-specific domain (SEQ ID NO: 3) (protein)
chain: B1 chain with T152K, S156A, L217E, V250K
modifications: Ankyrin repeat protein (MAM283)
B4: MAM279 conjugate: SEQ ID NO: 15 conjugated to DOTAM-maleimide, labelled with Pb-212 (natural lead in PK studies) (conjugate)
chain: GSDLGKKLLEAARAGQDDEVRELLKAGADVNAKDYFSHTPLHLAARNGHLKIVEVLLKAGADVNAKDFAGKTPLHLAADAGHLEIVEVLLKAGADVNAQDIFGKTPADIAADAGHEDIAEVLQKAAGSPTPTPTTPTPTPTTPTPTPTGSDLGKKLLAAAAQGQDDEVRELLKAGANVNAKDLFGYTPLHLAAWRGHLEIVEVLLKAGADVNAKDAAGETPLHLAAWFGHLEIVEVLLKAGADVNAQDLQGKTPADLAAKEGHEDIAEVLQKAAGSGSC
modifications: DOTAM-maleimide, Pb-212 label; Ankyrin repeat protein with tag (GS-MAM279-tag)

Tests used:
[1] = test system: hDLL3-MC38 tumor model; experiment: Biodistribution of radio-labelled DARPin conjugates in hDLL3-MC38 tumor model; type: in vivo, mouse; conditions: Pb-212 DOTAM conjugate 0.01 mg/kg (10 μCi) i.v., s.c. hDLL3-MC38
Excerpt: hDLL3-MC38 tumor model. ATH mice were purchased from Envigo. General handling and maintenance of mice was done as described above for the NCI-H82 tumor model. hDLL3-MC38 cells were purchased from Biocytogen (Catalog No. 311448). […] Cells were quantified using Countess cell counter.
Biodistribution study. […] Based on immunohistochemistry analyses, the hDLL3-MC38 tumors have a higher level of human DLL3 expression than the NCI-H82 tumors described in Example 3 (data not shown). Biodistribution was monitored at 1 h, 4 h and 24h post-injection. Mice were euthanized by CO2 inhalation and cervical dislocation.
Mice were euthanized by CO2 inhalation and cervical dislocation.

[2] = molecular target: T2, mouse serum albumin (Mus musculus, UniProt P07724); experiment: SPR binding to mouse serum albumin (Example 1); conditions: immobilized MSA, 1:1 Langmuir, Table 2
T2 construct: purchased Sigma-Aldrich
Method: Similarly, a SPR assay was used to determine the binding kinetics to human or mouse serum albumin. […] All analytes (3-fold dilution ranging from 1000-12.35 nM) were injected in succession for 240 s (25 μl/min) and dissociation was recorded for 600 s (25 μl/min). […] The obtained SPR traces were used to determine the ankyrin repeat protein-serum albumin interaction parameters, summarized in Table 2.

[3] = Thermal stability by Circular Dichroism (CD) spectroscopy; type: physicochemical; conditions: CD at 222 nm, 20° C. to 90° C., 2 μM in PBS pH7.4; DARPins with C-terminal Cysteine-containing tag (SEQ ID NOs: 15, 16, 18)
Method: Labelling of proteins conjugated to a chelator with a radionuclide may require harsh conditions, including high temperatures. The thermal stability and the propensity to unfold/refold of 2D DARPins MAM279, MAM283 and MAM282 were assessed using Circular Dichroism (CD) spectroscopy.
Samples of the DARPins were diluted to 2 μM in PBS, pH7.4. The assessment was done using a Jasco J-815 spectrophotometer. The Tm (melting temperature) of the selected proteins was determined by CD as a parameter for thermal stability. In brief, the ellipticity was recorded at […] and a temperature range from 20° C. to 90° C. was applied followed by reverse scan to record the refolding behavior. The Tm of the selected ankyrin repeat protein constructs is the midpoint of the protein unfolding. Spectra from 190-250 nm were recorded before and after the temperature scan.

[4] = molecular target: T1, NCI-H82 cells expressing human DLL3; experiment: Cell binding titration on NCI-H82 cells; type: cell-based
Method: Furthermore, cell binding titration assays were also performed with selected two domain (2D) designed ankyrin repeat proteins to determine binding to human cells expressing DLL3 endogenously, in absence and presence of human serum albumin. For this purpose, NCI-H82 cells were used, a human lung carcinoma cell line which endogenously expresses DLL3 on the surface. […] A non-binding DARPin comprising SEQ ID NO: 22 was used as a negative control.
In brief, 1×10^5 cells/well were resuspended in 100 μl DARPin dilution (500 nM, 1:5 serial diluted in PBS, 2% FBS) and incubated for 1 h at 4° C. This step was performed in absence and presence of 10 μM Human Serum Albumine (CSL Behring #150570). Cells were washed twice with PBS, 2% FBS and resuspended in 100 μl anti-DARPin antibody (rabbit anti-DARPin 1.4.8) and LIVE/DEAD cell stain (1:1000, Biolegend #423106). After incubation and washing, cells were incubated with detection antibody for 30 minutes (Goat […] IgG (H+L), AF647, Thermo Fisher #21445). Cells were fixed (Paraformaldehyde Solution, TCL119, LucernaChem) and acquired at Attune N×T (Thermo Life Technologies). Raw fcs files were exported and analyzed using FlowJo software. MFI values of live AF647-positive cells were exported from FlowJo and plotted using GraphPad Prism software.

[5] = athymic nude mice, 4 h, Example 7
[6] = athymic nude mice, 24 h, Example 7
[7] = athymic nude mice, 4 h, Example 9
[8] = athymic nude mice, 24 h, Example 9
[9] = absence of human serum albumin, read-out: Cell binding EC50, w/o HSA
[10] = presence of 10 μM human serum albumin, read-out: Cell binding EC50, with HSA

T2 sequence (P07724 25-608): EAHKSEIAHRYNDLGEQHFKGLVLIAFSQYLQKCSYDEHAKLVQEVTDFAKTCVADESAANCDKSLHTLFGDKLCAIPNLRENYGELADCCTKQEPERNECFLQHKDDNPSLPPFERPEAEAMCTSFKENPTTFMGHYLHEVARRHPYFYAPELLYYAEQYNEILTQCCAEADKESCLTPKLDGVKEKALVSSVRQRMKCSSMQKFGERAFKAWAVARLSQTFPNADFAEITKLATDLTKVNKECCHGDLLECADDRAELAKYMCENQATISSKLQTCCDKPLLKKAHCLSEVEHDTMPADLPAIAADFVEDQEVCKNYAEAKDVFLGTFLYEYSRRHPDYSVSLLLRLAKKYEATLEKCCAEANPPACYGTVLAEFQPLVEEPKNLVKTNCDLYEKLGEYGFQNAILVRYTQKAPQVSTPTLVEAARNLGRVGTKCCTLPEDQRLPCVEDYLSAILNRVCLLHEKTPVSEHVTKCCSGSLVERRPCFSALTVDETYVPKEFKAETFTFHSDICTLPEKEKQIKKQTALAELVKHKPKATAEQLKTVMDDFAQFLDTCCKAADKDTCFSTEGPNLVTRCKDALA

Molecule | Blood % ID/g [1, 5] | Kidneys % ID/g [1, 5] | Tumors % ID/g [1, 5] | Blood % ID/g [1, 6] | Kidneys % ID/g [1, 6] | Tumors % ID/g [1, 6] | Kd [2] | Koff MSA [2] | Kon MSA [2] | T:K ratio [1, 8] | melting temperature (Tm) [3] | EC50 [4, 9] | EC50 [4, 10] | also measured
B1 | 17.9 % ID/g | 11.6 % ID/g | 18.8 % ID/g | 1.9 % ID/g | 18 % ID/g | 28.9 % ID/g | 336 nM | 0.0271 s⁻¹ | 80430 M⁻¹ s⁻¹ | – | – | – | – | Blood % ID/g ([1]; athymic mice, 1 h, Example 4): 38 % ID/g; Kidneys % ID/g ([1]; athymic mice, 1 h, Example 4): 12 % ID/g; T:K ratio ([1]; athymic mice, 1 h, Example 4): 0.58; Tumors % ID/g ([1]; athymic mice, 1 h, Example 4): 7 % ID/g; Blood % ID/g ([1]; athymic mice, 4 h, Example 4): 25 % ID/g; Kidneys % ID/g ([1]; athymic mice, 4 h, Example 4): 12 % ID/g; T:K ratio ([1]; athymic mice, 4 h, Example 4): 1.42; Tumors % ID/g ([1]; athymic mice, 4 h, Example 4): 17 % ID/g; Blood % ID/g ([1]; athymic mice, 24 h, Example 4): 3 % ID/g; Kidneys % ID/g ([1]; athymic mice, 24 h, Example 4): 17 % ID/g; T:K ratio ([1]; athymic mice, 24 h, Example 4): 1.53; Tumors % ID/g ([1]; athymic mice, 24 h, Example 4): 26 % ID/g
B2 | 21.2 % ID/g | 14.3 % ID/g | 20.6 % ID/g | 8.1 % ID/g | 23.3 % ID/g | 57.6 % ID/g | 367 nM | 0.0335 s⁻¹ | 91240 M⁻¹ s⁻¹ | 2.5 | above 85 °C | 2.5 nM | 2.1 nM | Blood % ID/g [1, 7]: 21 % ID/g; Kidneys % ID/g [1, 7]: 14 % ID/g; T:K ratio [1, 7]: 1.5; Tumors % ID/g [1, 7]: 21 % ID/g; Blood % ID/g [1, 8]: 8 % ID/g; Kidneys % ID/g [1, 8]: 23 % ID/g; Tumors % ID/g [1, 8]: 58 % ID/g
B3 | 21.1 % ID/g | 16.9 % ID/g | 22.5 % ID/g | 0.8 % ID/g | 26.8 % ID/g | 45.5 % ID/g | 507 nM | 0.0378 s⁻¹ | 74680 M⁻¹ s⁻¹ | – | about 82 °C | 5.4 nM | 8.1 nM | –
B4 | – | – | – | – | – | – | – | – | – | above 1 | – | – | – | –
